# A protein production outcome set (Wang et al. 2014)
# Assay: label from the status in PepcDB records
row,Sequence,protein production
1,MKKLFPLLLLILSILVGCGKKEKHSVTEIAREKKRITALLYEKELPTDSVKQLYENSVQNKNLVGQMLFAIEVGKRMRNMSQYTDAMLYHQKGLNAALNLRDTIVAAQAWNHLGTDSRRIGALAEASDYHYKALSLIESFSGNQNRPAIKARSAALNGIGNINLELGYHDEAEKNFLKALQGEKELDSPLGQAINYANLGRIYRQRKEYDKARTYFLLSLEQNNMAENLMGIGLCSINLGEVDEEKGDYQKALQEYATAYKLMEQLSDRWHWLNSCIPMARINLKQGNERLYQHFISLAEGTAKEINSTSHLIEIYNLQYENLERKKEYKQALEAFCLSKTLSDSMSIAHKVSSIQETRFNYERNKSQKELEEIQQVSKAKQEKSKFILLSTLFALFISILLISVLTYAYRQGKKHNKLIKETDKLRSGFFTGITHEFRTPITVIQGLNEKMSSSPDLQASDRTELHKIIDRQSSHMLNLVNQLLDICKIRSGVSTPEWRNGDIVSFVQILIDSFAPYAQAQDITLELQPESKPIVVDFVPSYLQKIISNLLSNAIKYSLAGGRVVISLAKTKNEKNLIIRVADNGIGIDKTDQAHIFDIFYRGQSATEKHGSGVGLSFTNILVENLRGTIKVESQPGKGSAFTISIPTQNQSSSAEILPWLPSSDDIVMPVHIAPDDSPTSPMVAALNHRFEDERPTILLVEDNKDINLLVKLLLCDRYNVLSAANGKEGIALATEHIPDIIITDIMMPIMDGIEMTIRMKQSPLLCHIPIVALTAKSTEQDRLEGIKSGVVSYLCKPFSPEELLMRIEQLLKDRELLKKFYMQKLMLDRKPEEEPQPIDDSSMQFLLAAKDAVSGGIKQNPDFSAQDLAEKMCMSPSQLNRKLTSVVGCSTIGYIQQIKIKLACKLLADESKNISDISIEAGFSDPAYFSRTFKRYMNCSPSQYRQKLLAMPGSDKETV,failed
2,MKKLILSALVLGGAMTFTAQAQNKAAEPAEEFFLEGRAMFIRQNYVGALDQFRLYRLHVGQEHALEVDYYSIIADYLLGADHDYVLSAVGNFLDNFPESIDKSRVRLLTGELMIRHEQYLRANTIFSDIDDRTLNDEDLAAYLLYYAYVRMQLSESNALAEQMLLKASESRGELGGRACLLLAAIQIEDGRIDEAEQTLSRLKNRPQFADEADAYIAEIQLLRGDYREAAEIADRLLSRNSPMRQRPQLLRVAGNAYYRLGDSNKTIDYLSDYSEKVGDRIAPADAYALGVTYYKQGLMKEALRPLAAATTDAGSLGAESALYLGQAQLAEGMTSEALMAFEKAATQDVNRPVREVGMYNMAMLMRSTGQSSFGQSVRIAENFLNEFPRSSHREQMAAILVESYFTGKDYNSSLRSIQKIAQPTASILAAKQFVLNRMAEQKEAAGYDSEALSFVSSSISMGNKGEYFPEAYFLRGNLRYRAGDFPTAAADYRAYISAAGDRDAANLPLGYYRLGYSLFNAERYDMALEAFKEYVSRSGIAPNLSADAYARIGDCRYMKRDFHGAREAYSMAYRVYPSGGDYALLRRARLEGLAKQYADQIQTLDKLIREFPDSRHLTAALYEKGCGAVLSGKHNVAEEAFNAVVKRSPDSREARQSSLQLGLLYYNTGRTKEAIRTYQRIIDRYPRSEETTVALSDLRSIYLEEDRIDEYSTYVRGLKDKVSIAPSETEQLGFLSAERKYRRRQPDARRDLEAYLERYPQGSDRHKAELYLADLDYQAGNADAAYNRYSRLVNSPGLPEDYKIDARLRLGRMQYERKEYKAALQSFQSVLDTDGAEAVRDQAVQGVTESAYADKDYRRVIDVIAGLKNQAALPHTLRLYRAKSYQALKMNREAIADYELLAEDFSTATGAEAVVMQAQLEMEAKRLSKAKSILEKFIAKSTPQQYWLARGFILLSDIYKKEGDTFTARQYLESLEKNYPNHEDDIHEQIAQRLE,failed
3,MKKLLFAIDDTEACERAAQYILDMFGKDADCTLTLIHVKPEFMLYGEAVLAAYDEIEMKEEEKAKLLTQKFSTFFTEKGINPFVVIKEGEPVEMVLEEAKDYNLLIIGSSENSFLNKIFASHQDDFIQKAPIPVLIVK,not failed
4,MKKLLTLFCLMLGLSSTQALAAADNPVELIKDGSRQVLDVLKQDNGKNTKQVRQQAEAIAVPLFDFPRMTALAVGLGWRQATPEQRNELTQQFQTLLVRTYSTTMTRFKTAQVSVQPNPVSGANGKDVTVKSSVTLPGNANPVAVDYVLNKGDKGWKIYNVSVEGASLVTVYRNSFNEEIRKNGVDGLIKLLQDKNAAPAPAAASAAKGKGLEHHHHHH,failed
5,MKKLNSKGIRLSELMEKWRRRKKGHFAVYTNEGKRFVLPLDYLNHPMLQVLLQMAEDEFGTTIDGPLKVPCDGSLMDHIIMLVRRSMSHDYDDVEKSSTSSTCKGASISSLFRGQSQLQSLVS,failed
6,MKKLNTNKLTEEQVNLFKNNLVYLATVDADGNPQVGPKGSMTVLDPSHLQYLEKTKGEAYENIKRGSKVALVAADVPSHTAVRVLATAEVHEDDDYAKKVLAKTEFPNAFVVNLNIEEVFA,not failed
